# Results from paper PMC3144226, “Conformational Plasticity of proNGF” (PLoS ONE, 2011).
# B1: mature murine Nerve Growth Factor (NGF) (natural protein, UniProt P01139 122-241, looked up)
# chain: SSTHPVFHMGEFSVCDSVSVWVGDKTTATDIKGKEVTVLAEVNINNSVFRQYFFETKCRASNPVESGCRGIDSKHWNSYCTTTHTFVKALTTDEKQAAWRFIRIDTACVCVLSRKATRRG
# notes: mature NGF, murine, the cut product of proNGF25 after the furin site RSKR (118-121 of UniProt P01139); Trp21, Trp76, Trp99. numbers count on: the mature protein; The purified NGF was made by trypsin cleavage, the NGF of the furin experiment by furin cleavage in the tube; also called mature NGF; NGF moiety; source: in the furin experiment released from proNGF25 by furin in the NMR tube
# What was measured:
# [1] = biological target: recombinant murine proNGF (proNGF25, the short form of the precursor protein) (murine) (UniProt P01139); assay: NMR diffusion (PFG-LED); diffusion compared with model proteins (IscS dimer, DHFR, NusA KH domain); phosphate buffer pH 7, 25°C
# [2] = biological target: the molecule itself; assay: 1D 1H NMR spectrum (linewidths); unlabelled NGF; phosphate buffer pH 7, 25°C
Molecule,stoichiometry N [1],binding result [2]
"recombinant murine proNGF (proNGF25, the short form of the precursor protein) (from UniProt P01139 19-241) (natural protein)",2,
B1,,binds
